A word on the stoichiometry N: it is a count of units in the complex or per binding partner. A word on the Kd: it is a measure of binding affinity in units of concentration.

Where two headings read alike, the source gives them in different places.

Data set [1] addresses zinc uptake regulator (Zur) from Xanthomonas campestris pv. campestris (XcZur) (Xanthomonas campestris pv. campestris strain 8004). Kind of data set: AUC.
For data set [2] the target is unchanged. Description: AUC. The source holds these as a separate data set.
Data set [3] addresses T1, XcZur (Xanthomonas campestris pv. campestris …, UniProt Q4UWS5 1-172).
T1 sequence: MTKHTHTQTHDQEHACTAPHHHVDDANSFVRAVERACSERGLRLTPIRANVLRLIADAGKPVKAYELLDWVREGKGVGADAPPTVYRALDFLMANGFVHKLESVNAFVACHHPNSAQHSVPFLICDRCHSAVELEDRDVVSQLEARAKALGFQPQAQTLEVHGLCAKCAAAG
Kind of data set: BLI. In general terms: In BLI a coated tip is dipped into the sample, and binding shifts an interference pattern.

The data set “crystal structure” concerns the molecule itself. Description: crystal structure.
The target of data set [4] is T1, XcZur. Kind of data set: EMSA. (In general: In EMSA bound probe runs differently from free probe, usually more slowly.)
Data set [5] has as its target T1, XcZur. Description: EMSA. This is another data set of the same source.

In data set [1], “zinc uptake regulator (Zur) from Xanthomonas campestris pv. campestris (XcZur) (natural protein)” came in with a percent as dimers of 32.9%, a percent as monomers of 60.5%, a percent as trimers of 5.8% and a stoichiometry N of 2. Besides, in data set [2], the percent as dimers amounted to 60.3%, the percent as monomers turned out to be 28.9%, the percent as tetramers is 4.9% and the stoichiometry N worked out at 2.

B1: P2472-Biotin (dsDNA)
DNA 1: AAGTGTTATAAAGTAACACTAGTCGCG
DNA 2: CGCGACTAGTGTTACTTTATAACACTT
Regarding B1, the Kd with XcZur [3] is around 0.038 µM.

B2: P3788-Biotin (dsDNA)
DNA 1: ATTGATACGTTATCACATTGCGCCCCGCGCT
DNA 2: AGCGCGGGGCGCAATGTGATAACGTATCAAT
In the data set with XcZur [3], B2 yielded a Kd of around 0.063 µM.

B3: N-terminal extension deleted XcZur (T17-G172) (domain or fragment)
chain: TAPHHHVDDANSFVRAVERACSERGLRLTPIRANVLRLIADAGKPVKAYELLDWVREGKGVGADAPPTVYRALDFLMANGFVHKLESVNAFVACHHPNSAQHSVPFLICDRCHSAVELEDRDVVSQLEARAKALGFQPQAQTLEVHGLCAKCAAAG
For B3, in “crystal structure”, the binding result is “binds”.

B4: EcZur-box (dsDNA)
DNA 1: AGAAGTGTGATATTATAACATTTCATGACTATG
DNA 2: CATAGTCATGAAATGTTATAATATCACACTTCT
Turning to B4, the binding result with XcZur [4] is “binds”.

B5: P2976 (dsDNA)
DNA 1: TTAGGGCCACGCGGTTGCGGAGACTATTACACCGGCGCGTGATGAGATCACATCACGTG
DNA 2: CACGTGATGTGATCTCATCACGCGCCGGTGTAATAGTCTCCGCAACCGCGTGGCCCTAA
With B5, the binding result with XcZur [5] was “no binding”.

B6: P0267-Biotin (dsDNA)
DNA 1: GGCGAGTTGTTATACAGTAACATTTCTAG
DNA 2: CTAGAAATGTTACTGTATAACAACTCGCC
Consider B6, for which the Kd with XcZur [3] was around 0.022 µM.

These data come from PMC8216289 (Nucleic Acids Research, 2021).
